Blank lines part the entries; values can stand above or below the substance they belong to.
Experiments:
[1] = biological target: Histone H3 recombinant protein, calf, Roche 11 034 758 001 (calf) (UniProt P68432); experiment: RPA, competition: +free H3 peptide 100 nM
[2] = biological target: ERK1 (p44) active (GST tagged), human, Invitrogen PV 3311 (human) (UniProt P27361); experiment: RPA, competition: +free H3 peptide 100 nM
[3] = biological target: Erk1-BSA 2.7x peptide-protein conjugate (human; bovine); experiment: RPA, competition: +free H3 peptide 100 nM
Sequence of Erk1-BSA 2.7x peptide-protein conjugate (human; bovine) (peptide, as listed by the source limits assumed, chain 1 of 2): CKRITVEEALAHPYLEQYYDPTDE
Sequence of Erk1-BSA 2.7x peptide-protein conjugate (human; bovine) (P02769 25-607 limits assumed, chain 2 of 2): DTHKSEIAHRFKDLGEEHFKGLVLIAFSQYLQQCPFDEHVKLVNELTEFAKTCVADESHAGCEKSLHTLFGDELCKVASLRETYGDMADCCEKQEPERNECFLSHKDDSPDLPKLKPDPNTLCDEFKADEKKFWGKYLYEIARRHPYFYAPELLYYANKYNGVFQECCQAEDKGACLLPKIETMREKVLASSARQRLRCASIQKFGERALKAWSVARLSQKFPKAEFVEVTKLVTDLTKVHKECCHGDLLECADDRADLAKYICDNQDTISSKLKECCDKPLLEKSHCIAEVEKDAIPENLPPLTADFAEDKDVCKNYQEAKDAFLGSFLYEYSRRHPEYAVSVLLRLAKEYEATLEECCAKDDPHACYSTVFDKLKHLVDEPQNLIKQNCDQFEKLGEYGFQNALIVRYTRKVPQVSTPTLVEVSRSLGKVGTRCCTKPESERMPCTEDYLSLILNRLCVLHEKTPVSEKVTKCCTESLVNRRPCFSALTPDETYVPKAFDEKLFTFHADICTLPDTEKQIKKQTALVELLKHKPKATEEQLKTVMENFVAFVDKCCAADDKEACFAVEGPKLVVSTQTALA

[4] = biological target: ERK1 (p44) inactive (GST tagged), human, Invitrogen PV 3312 (human) (UniProt P27361); experiment: RPA, competition: +free H3 peptide 100 nM
[5] = biological target: Histone H3 recombinant protein, human, Upstate 14-494 (human) (UniProt P68431); experiment: RPA, competition: +free H3 peptide 100 nM
[6] = biological target: ERK1 (p42) active (phospho), human, Active Motif 31 152 (human) (UniProt P27361); experiment: RPA, competition: +free H3 peptide 100 nM
[7] = biological target: pRb recombinant protein, human, Active Motif 31 128 (human) (UniProt P06400); experiment: RPA, competition: +free H3 peptide 100 nM
Sequence of UniProt P06400 (P06400 whole entry): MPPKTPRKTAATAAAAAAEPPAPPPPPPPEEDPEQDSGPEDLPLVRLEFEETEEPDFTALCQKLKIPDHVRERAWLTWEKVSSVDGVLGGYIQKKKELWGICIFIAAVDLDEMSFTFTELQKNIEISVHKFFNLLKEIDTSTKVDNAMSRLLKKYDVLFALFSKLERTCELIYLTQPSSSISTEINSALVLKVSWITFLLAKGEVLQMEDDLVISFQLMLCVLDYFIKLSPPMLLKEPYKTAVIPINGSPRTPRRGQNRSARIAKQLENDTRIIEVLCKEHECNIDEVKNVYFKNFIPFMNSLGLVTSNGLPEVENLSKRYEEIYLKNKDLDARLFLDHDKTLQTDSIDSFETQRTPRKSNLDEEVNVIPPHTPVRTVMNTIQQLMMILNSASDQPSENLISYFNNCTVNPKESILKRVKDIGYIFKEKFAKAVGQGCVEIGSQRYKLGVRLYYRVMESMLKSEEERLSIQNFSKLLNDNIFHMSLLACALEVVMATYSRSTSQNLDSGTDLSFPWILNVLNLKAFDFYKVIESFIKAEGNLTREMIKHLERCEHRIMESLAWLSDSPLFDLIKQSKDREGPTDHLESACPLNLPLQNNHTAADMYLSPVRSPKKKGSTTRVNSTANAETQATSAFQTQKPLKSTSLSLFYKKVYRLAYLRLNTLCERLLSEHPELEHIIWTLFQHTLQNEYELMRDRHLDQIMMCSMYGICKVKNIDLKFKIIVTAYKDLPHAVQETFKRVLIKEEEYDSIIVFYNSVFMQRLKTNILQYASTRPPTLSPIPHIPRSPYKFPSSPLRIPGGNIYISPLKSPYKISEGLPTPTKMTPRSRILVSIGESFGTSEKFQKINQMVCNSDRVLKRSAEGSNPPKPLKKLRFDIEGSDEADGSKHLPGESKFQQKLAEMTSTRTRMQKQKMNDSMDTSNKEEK

[8] = biological target: pErk1/2-BSA 2.7x peptide-protein conjugate (human; bovine); experiment: RPA, competition: +free H3 peptide 100 nM
Sequence of pErk1/2-BSA 2.7x peptide-protein conjugate (human; bovine) (P02769 25-607 limits assumed): as the sequence (P02769 25-607 limits assumed, chain 2 of 2) above

[9] = biological target: Histone H3-BSA 2.7x peptide-protein conjugate (bovine); experiment: RPA, competition: +free H3 peptide 100 nM
Sequence of Histone H3-BSA 2.7x peptide-protein conjugate (bovine) (P02769 25-607 limits assumed): as the sequence (P02769 25-607 limits assumed, chain 2 of 2) above

[10] = biological target: pRb-BSA 1x peptide-protein conjugate (bovine); experiment: RPA, competition: +free H3 peptide 100 nM
Sequence of pRb-BSA 1x peptide-protein conjugate (bovine) (P02769 25-607 limits assumed): as the sequence (P02769 25-607 limits assumed, chain 2 of 2) above

[11] = biological target: ERK1 (p44), human, Cell Signaling Technology 7416 (human) (UniProt P27361); experiment: RPA, competition: +free H3 peptide 100 nM
[12] = biological target: ERK2 (p42), human, Biosource PHO 0104 (human) (UniProt P28482); experiment: RPA, competition: +free H3 peptide 100 nM
Sequence of UniProt P28482 (P28482 2-360 limits assumed): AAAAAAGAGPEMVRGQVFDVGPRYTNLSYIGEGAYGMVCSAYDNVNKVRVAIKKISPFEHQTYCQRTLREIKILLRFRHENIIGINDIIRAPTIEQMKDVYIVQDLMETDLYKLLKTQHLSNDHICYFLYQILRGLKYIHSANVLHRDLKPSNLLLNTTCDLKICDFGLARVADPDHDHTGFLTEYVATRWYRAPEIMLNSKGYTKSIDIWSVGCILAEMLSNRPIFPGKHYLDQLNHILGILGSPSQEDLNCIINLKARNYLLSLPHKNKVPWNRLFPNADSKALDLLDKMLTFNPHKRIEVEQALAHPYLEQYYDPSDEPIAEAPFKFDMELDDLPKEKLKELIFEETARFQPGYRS

[13] = biological target: Histone H3 recombinant protein, human, Upstate 14-494 (human) (UniProt P68431); experiment: RPA standard curves, mean of duplicate assays
[14] = biological target: Histone H3-BSA 2.7x peptide-protein conjugate (bovine); experiment: RPA standard curves, mean of duplicate assays
[15] = biological target: pErk1/2-BSA 2.7x peptide-protein conjugate (human; bovine); experiment: RPA, 8 point dilution series of the peptide standard in buffer, assay 1
[16] = biological target: Erk1-BSA 2.7x peptide-protein conjugate (human; bovine); experiment: RPA standard curves, mean of duplicate assays
[17] = biological target: ERK1 (p44) inactive (GST tagged), human, Invitrogen PV 3312 (human) (UniProt P27361); experiment: RPA standard curves, mean of duplicate assays
[18] = biological target: pErk1/2-BSA 2.7x peptide-protein conjugate (human; bovine); experiment: RPA, 8 point dilution series of the peptide standard in buffer, assay 2
[19] = biological target: Histone H3 recombinant protein, calf, Roche 11 034 758 001 (calf) (UniProt P68432); experiment: RPA, competition: +free Erk1 peptide 1000 nM
[20] = biological target: ERK1 (p44) active (GST tagged), human, Invitrogen PV 3311 (human) (UniProt P27361); experiment: RPA, competition: +free Erk1 peptide 1000 nM
[21] = biological target: Erk1-BSA 2.7x peptide-protein conjugate (human; bovine); experiment: RPA, competition: +free Erk1 peptide 1000 nM
[22] = biological target: ERK1 (p44) inactive (GST tagged), human, Invitrogen PV 3312 (human) (UniProt P27361); experiment: RPA, competition: +free Erk1 peptide 1000 nM
[23] = biological target: Histone H3 recombinant protein, human, Upstate 14-494 (human) (UniProt P68431); experiment: RPA, competition: +free Erk1 peptide 1000 nM
[24] = biological target: ERK1 (p42) active (phospho), human, Active Motif 31 152 (human) (UniProt P27361); experiment: RPA, competition: +free Erk1 peptide 1000 nM
[25] = biological target: pRb recombinant protein, human, Active Motif 31 128 (human) (UniProt P06400); experiment: RPA, competition: +free Erk1 peptide 1000 nM
[26] = biological target: pErk1/2-BSA 2.7x peptide-protein conjugate (human; bovine); experiment: RPA, competition: +free Erk1 peptide 1000 nM
[27] = biological target: Histone H3-BSA 2.7x peptide-protein conjugate (bovine); experiment: RPA, competition: +free Erk1 peptide 1000 nM
[28] = biological target: pRb-BSA 1x peptide-protein conjugate (bovine); experiment: RPA, competition: +free Erk1 peptide 1000 nM
[29] = biological target: ERK1 (p44), human, Cell Signaling Technology 7416 (human) (UniProt P27361); experiment: RPA, competition: +free Erk1 peptide 1000 nM
[30] = biological target: ERK2 (p42), human, Biosource PHO 0104 (human) (UniProt P28482); experiment: RPA, competition: +free Erk1 peptide 1000 nM
[31] = biological target: pErk1/2-BSA 2.7x peptide-protein conjugate (human; bovine); experiment: RPA standard curves, mean of duplicate assays
[32] = biological target: Histone H3 recombinant protein, calf, Roche 11 034 758 001 (calf) (UniProt P68432); experiment: RPA, competition: +free pErk1/2 peptide 100 nM
[33] = biological target: Erk1-BSA 2.7x peptide-protein conjugate (human; bovine); experiment: RPA, competition: +free pErk1/2 peptide 100 nM
[34] = biological target: ERK1 (p44) inactive (GST tagged), human, Invitrogen PV 3312 (human) (UniProt P27361); experiment: RPA, competition: +free pErk1/2 peptide 100 nM
[35] = biological target: ERK1 (p42) active (phospho), human, Active Motif 31 152 (human) (UniProt P27361); experiment: RPA, competition: +free pErk1/2 peptide 100 nM
[36] = biological target: ERK1 (p44), human, Cell Signaling Technology 7416 (human) (UniProt P27361); experiment: RPA, competition: +free pErk1/2 peptide 100 nM
[37] = biological target: ERK2 (p42), human, Biosource PHO 0104 (human) (UniProt P28482); experiment: RPA, competition: +free pErk1/2 peptide 100 nM

maximum standard curve signal [1]: 0.2 RFI | maximum standard curve signal [2]: < 0.01 RFI | maximum standard curve signal [3]: 0.01 RFI | maximum standard curve signal [4]: 0.02 RFI | maximum standard curve signal [5]: 4.45 RFI | maximum standard curve signal [6]: < 0.01 RFI | maximum standard curve signal [7]: < 0.01 RFI | maximum standard curve signal [8]: < 0.01 RFI | maximum standard curve signal [9]: 3.33 RFI | maximum standard curve signal [10]: < 0.01 RFI | maximum standard curve signal [11]: < 0.01 RFI | maximum standard curve signal [12]: < 0.01 RFI | mean LOD [13]: 0.156 nM | mean LOD [14]: 0.123 nM
Substance: Histone H3 antibody, Abcam ab1791

mean signal (standard curve) [15]: 0.01 RFI | mean LOD [16]: 0.046 nM | mean LOD [17]: 0.072 nM | mean signal (standard curve) [18]: 0.008 RFI | maximum standard curve signal [19]: 0.01 RFI | maximum standard curve signal [20]: 0.02 RFI | maximum standard curve signal [21]: 0.14 RFI | maximum standard curve signal [22]: 0.02 RFI | maximum standard curve signal [23]: 0.01 RFI | maximum standard curve signal [24]: 0.01 RFI | maximum standard curve signal [25]: 0.01 RFI | maximum standard curve signal [26]: 0.01 RFI | maximum standard curve signal [27]: 0.02 RFI | maximum standard curve signal [28]: 0.01 RFI | maximum standard curve signal [29]: < 0.01 RFI | maximum standard curve signal [30]: 0.01 RFI
Substance: p44/42 MAPK (Erk1/2) antibody, Biosource 44-654G

mean LOD [31]: 0.03 nM | maximum standard curve signal [32]: 0.01 RFI | maximum standard curve signal [33]: 0.02 RFI | maximum standard curve signal [34]: 0.01 RFI | maximum standard curve signal [35]: 0.01 RFI | maximum standard curve signal [36]: < 0.01 RFI | maximum standard curve signal [37]: 0.01 RFI
Substance: p44/42 MAPK phospho (pERK1/2) Thr202/Tyr204 antibody, Cell Signaling Technology #9101

From patent US20120220489A1
